Results: the Immune Epitope Database (IEDB)
pIC50, pKd: −log10 of the molar value. One block for each sequence: values may come before it.

Key:
[1] = molecular target: HLA-C*06:02; test: IEDB peptide-MHC binding, purified MHC/direct/fluorescence; filed as Kd, often an IC50 or EC50 that approximates it; ≥ and ≤ were set here for values at or beyond the usual limits of such assays
[2] = molecular target: HLA-A*68:02; test: IEDB peptide-MHC binding, purified MHC/competitive/fluorescence; filed as Kd, often an IC50 or EC50 that approximates it; ≥ and ≤ were set here for values at or beyond the usual limits of such assays; settings: source organism: Entamoeba histolytica HM-1:IMSS
[3] = molecular target: HLA-A*31:01; test: IEDB peptide-MHC binding, purified MHC/direct/fluorescence; filed as Kd, often an IC50 or EC50 that approximates it; ≥ and ≤ were set here for values at or beyond the usual limits of such assays; settings: source organism: Escherichia coli O157:H7
[4] = molecular target: HLA-B*44:02; test: as above; settings: source organism: Escherichia coli O157:H7
[5] = molecular target: HLA-B*07:02; test: as above; settings: source organism: Escherichia coli O157:H7
[6] = molecular target: HLA-A*69:01; test: as above; settings: source organism: Escherichia coli O157:H7
[7] = molecular target: HLA-A*02:01; test: as above; settings: source organism: Escherichia coli O157:H7
[8] = molecular target: HLA-B*40:01; test: as above; settings: source organism: Escherichia coli O157:H7
[9] = molecular target: HLA-A*11:01; test: as above; settings: source organism: Escherichia coli O157:H7
[10] = molecular target: HLA-B*27:05; test: as above; settings: source organism: Escherichia coli O157:H7
[11] = molecular target: HLA-B*15:01; test: as above
[12] = molecular target: HLA-A*03:01; test: as above
[13] = molecular target: HLA-B*58:01; test: as above; settings: source organism: Escherichia coli O157:H7
[14] = molecular target: HLA-A*26:01; test: as above; settings: source organism: Escherichia coli O157:H7
[15] = molecular target: HLA-A*01:01; test: as above; settings: source organism: Escherichia coli O157:H7
[16] = molecular target: HLA-B*35:01; test: as above; settings: source organism: Escherichia coli O157:H7
[17] = molecular target: HLA-A*02:16; test: as above
[18] = molecular target: HLA-A*29:02; test: as above; settings: source organism: Maciel virus
[19] = molecular target: HLA-A*02:12; test: as above
[20] = molecular target: HLA-A*02:03; test: as above
[21] = molecular target: HLA-A*02:11; test: as above
[22] = molecular target: HLA-A*02:19; test: as above
[23] = molecular target: HLA-B*46:01; test: IEDB peptide-MHC binding, purified MHC/competitive/fluorescence; filed as Kd, often an IC50 or EC50 that approximates it; ≥ and ≤ were set here for values at or beyond the usual limits of such assays
[24] = molecular target: HLA-B*27:03; test: as above
[25] = molecular target: HLA-A*69:01; test: as above
[26] = molecular target: HLA-B*51:01; test: as above; settings: source organism: Lechiguanas virus
[27] = molecular target: HLA-A*02:01; test: as above
[28] = molecular target: HLA-B*15:01; test: as above
[29] = molecular target: HLA-B*39:01; test: as above
[30] = molecular target: HLA-B*58:01; test: as above
[31] = molecular target: HLA-A*26:01; test: as above
[32] = molecular target: HLA-B*18:01; test: as above
[33] = molecular target: HLA-A*24:02; test: IEDB peptide-MHC binding, purified MHC/competitive/fluorescence; ≥ and ≤ were set here for values at or beyond the usual limits of such assays; settings: source organism: Zaire ebolavirus
[34] = molecular target: HLA-A*68:02; test: IEDB peptide-MHC binding, purified MHC/direct/fluorescence; filed as Kd, often an IC50 or EC50 that approximates it; ≥ and ≤ were set here for values at or beyond the usual limits of such assays; settings: source organism: Zaire ebolavirus
[35] = molecular target: HLA-B*83:01; test: IEDB peptide-MHC binding, purified MHC/competitive/fluorescence; filed as Kd, often an IC50 or EC50 that approximates it; ≥ and ≤ were set here for values at or beyond the usual limits of such assays; settings: source organism: Zaire ebolavirus
[36] = molecular target: HLA-A*68:23; test: as above; settings: source organism: Zaire ebolavirus
[37] = molecular target: HLA-A*32:07; test: as above; settings: source organism: Zaire ebolavirus
[38] = molecular target: HLA-B*45:06; test: as above; settings: source organism: Zaire ebolavirus
[39] = molecular target: HLA-A*32:15; test: as above; settings: source organism: Zaire ebolavirus
[40] = molecular target: HLA-B*15:42; test: as above; settings: source organism: Zaire ebolavirus
[41] = molecular target: HLA-C*05:01; test: IEDB peptide-MHC binding, purified MHC/direct/fluorescence; filed as Kd, often an IC50 or EC50 that approximates it; ≥ and ≤ were set here for values at or beyond the usual limits of such assays; settings: source organism: Salmonella enterica subsp. enterica serovar Typhi str. CT18
[42] = molecular target: HLA-A*01:01; test: IEDB peptide-MHC binding, purified MHC/competitive/fluorescence; filed as Kd, often an IC50 or EC50 that approximates it; ≥ and ≤ were set here for values at or beyond the usual limits of such assays
[43] = molecular target: HLA-B*35:01; test: as above; settings: source organism: Escherichia coli O139:H28 str. E24377A
[44] = molecular target: HLA-C*03:03; test: IEDB peptide-MHC binding, purified MHC/direct/fluorescence; filed as Kd, often an IC50 or EC50 that approximates it; ≥ and ≤ were set here for values at or beyond the usual limits of such assays; settings: source organism: Escherichia coli O139:H28 str. E24377A
[45] = molecular target: HLA-C*12:03; test: as above; settings: source organism: Escherichia coli O139:H28 str. E24377A
[46] = source organism: Escherichia coli O157:H7
[47] = source organism: Lechiguanas virus
[48] = source organism: Zaire ebolavirus
[49] = source organism: Salmonella enterica subsp. enterica serovar Typhi
[50] = source organism: Escherichia coli O139:H28 str. E24377A

Sequence: YARYVLQKL
pKd ([1]; source organism: human gammaherpesvirus 4): 6.06

Sequence: CAMFWYHYI
pKd ([1]; source organism: Entamoeba histolytica HM-1:IMSS): 5.90
pKd [2]: 8.14

pKd [3]: ≤ 4.70
pKd [4]: ≤ 4.70
pKd [5]: 6.65
pKd [6]: ≤ 4.70
pKd [7]: ≤ 4.70
pKd [8]: ≤ 4.70
pKd [9]: ≤ 4.70
pKd [10]: ≤ 4.70
pKd [11, 46]: ≤ 4.70
pKd [12, 46]: ≤ 4.70
pKd [13]: ≤ 4.70
pKd [14]: ≤ 4.70
pKd [15]: ≤ 4.70
pKd [16]: 5.86
Sequence: RPPRRGDKF

Sequence: HTQAIEGAW
pKd ([17]; source organism: Maciel virus): ≤ 4.70
pKd [18]: ≤ 4.70
pKd ([19]; source organism: Maciel virus): ≤ 4.70
pKd ([20]; source organism: Maciel virus): ≤ 4.70
pKd ([21]; source organism: Maciel virus): ≤ 4.70
pKd ([22]; source organism: Maciel virus): ≤ 4.70
pKd ([12]; source organism: Maciel virus): ≤ 4.70
pKd [23, 47]: ≤ 4.70
pKd [24, 47]: ≤ 4.70
pKd [25, 47]: ≤ 4.70
pKd [26]: ≤ 4.70
pKd [27, 47]: ≤ 4.70
pKd [28, 47]: ≤ 4.70
pKd [29, 47]: ≤ 4.70
pKd [30, 47]: 8.89
pKd [31, 47]: ≤ 4.70
pKd [32, 47]: ≤ 4.70

Sequence: IGILHLILW
pKd ([30]; source organism: Influenza A virus (A/Memphis/1/1978(H1N1))): 5.49

Sequence: TTIGEWAFW
pIC50 [33]: 6.95
pKd [17, 48]: ≤ 4.70
pKd [19, 48]: ≤ 4.70
pKd [20, 48]: ≤ 4.70
pKd [21, 48]: ≤ 4.70
pKd [34]: ≤ 4.70
pKd [22, 48]: ≤ 4.70
pKd [11, 48]: ≤ 4.70
pKd [12, 48]: ≤ 4.70
pKd [35]: ≤ 5.30
pKd [23, 48]: ≤ 4.70
pKd [24, 48]: ≤ 4.70
pKd [25, 48]: ≤ 4.70
pKd [27, 48]: ≤ 4.70
pKd [36]: 8.80
pKd [37]: 8.48
pKd [38]: ≤ 5.30
pKd [39]: 7.57
pKd [29, 48]: ≤ 4.70
pKd [30, 48]: 9.52
pKd [31, 48]: ≤ 4.70
pKd [32, 48]: ≤ 4.70
pKd [40]: ≤ 5.30

Sequence: ITDWLNFTL
pKd [41]: 6.67
pKd [27, 49]: 8.66
pKd [30, 49]: 6.91
pKd [42, 49]: 6.01

pKd [28, 50]: 6.81
pKd [31, 50]: 7.38
pKd [42, 50]: ≤ 4.70
pKd [43]: 8.18
Sequence: EIVAEYITY

pKd [44]: ≥ 9.00
pKd [45]: 8.00
pKd [27, 50]: 6.78
pKd [28, 50]: ≤ 4.70
pKd [29, 50]: ≤ 4.70
pKd [30, 50]: 6.13
Sequence: LAAEEILTL
